The record followed here is patent US20150246953A1 (Scripps Research, published 2015).

The assay deals with T1, MG281F2 construct, residues 278 to 450 with N-terminal 6-His tag and thrombin cleavage site (Mycoplasma genitalium, UniProt P47523 279-452).
T1 sequence: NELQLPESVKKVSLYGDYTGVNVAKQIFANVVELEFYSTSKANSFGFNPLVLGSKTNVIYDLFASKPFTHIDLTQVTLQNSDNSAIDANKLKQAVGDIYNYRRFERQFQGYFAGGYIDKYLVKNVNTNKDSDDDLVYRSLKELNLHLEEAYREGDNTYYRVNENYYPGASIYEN
The assay can be described thus: Western blot, plasma 13PL as primary antibody.

B1: IgG from multiple myeloma patient plasma 13PL (antibody, V domains shown)
VH: AVSLVESGGGTVEPGSTLRLSCAASGFTFGSYAFHWVRQAPGDGLEWVAFISYNGSSKYYANFVKGRFTISRDNSSNTLSLQMNSLKASDTAVYYCARAPDCAQADCHKGAFGYWGQGTLVTVSS
VL: DIEMTQSPSSLSASTGDKVTITCQASQDIAQFLDWYQQRPGDTPKLLIYDASNLAIGVPSRFTGSGSGTDFTFTISSLQPEDIAVYYCQHYDDFPISFGPGTKLETKR
notes: also called multiple myeloma antibody 13PL
As to B1, the binding result is “no binding (tested: 1 µg/µg and 2 µg/µg)”.
